The values that follow come from the supplement of paper PMC12042874.

± gives the uncertainty stated by the source.

A short description of the data set: amyloid nucleation score (Sup35N fusion, yeast selection) (log enrichment); library NNK2; higher = more nucleation; inactive = no reads after selection. The gist of the method:
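Using DiMSum, nucleation scores were taken as the log enrichment of output over input reads, centred on the mode score of non-aggregating sequences. The input and output reads came from Illumina sequencing of plasmid inserts, with sequences under 100 input reads excluded. The yeast were psi-negative, expressed Sup35N fused to peptides of 20 random codons, were induced with 100 μM copper sulfate for 24 hours, and were grown 7 days at 30°C on medium lacking adenine and uracil.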
In turn, ILNNMIL showed an amyloid nucleation score of 2.55 ± 0.21.
The figure for ILNPFCTRFK is -2.26 ± 0.64; for ILSCVARGCYYTTL it is -1.38 ± 1.1.
For ILSNMGSMVFTLCNRDSMLR, the amyloid nucleation score was -0.523 ± 1.
The figure for ILSPTSL is 1.26 ± 0.52.
For ILVYASWLGYHLDICSGFRS, the amyloid nucleation score came out at 1.64 ± 0.089.
ILWDRISFNMLRLTRCRFFF returned an amyloid nucleation score of -0.632 ± 1.1.
The figure for ILYGVLTPYFHAVI is -0.003 ± 0.65; for IMIMYFCCDMGRLGP it is 8.458 ± 0.056.
IMKYAHFNLK returned an amyloid nucleation score of 0.788 ± 0.51.
Under IMMQDWGIGFAFIGSPCRCD stands 9.01 ± 0.048; under IMNGLMDFMLTKVLKDMFNW, -0.249 ± 1.1; under IMSMGGVLMFWS, 3.66 ± 0.12.
The figure for IMSSHKSAYRVFLHGLCRMV is -0.028 ± 0.74; for IMSSVELWENHYCGDVCMIV it is 7.908 ± 0.049.
The figure for IMTHLVSTR is 1.5 ± 0.3.
For the substance IMVVEQYLYYYSKVCTFFSV, the amyloid nucleation score entry was “inactive”.
The figure for IMVVYETSVAGPRTSRGYCL is 4.729 ± 0.041; for IMYVMGVVFNTMWVSA it is -1.11 ± 0.62; for INFMAVDDKPRVVVEPCPSA it is 0.623 ± 0.62.
Under INFTYMGVMIFLSLLRQTWG stands -0.311 ± 0.56; under INLYPR, “inactive”.
Under INTSNQFFGYLYLWVSRYRY stands -1.03 ± 0.54; under INVLFRVSPRISAVRNVCST, -0.271 ± 0.36.
INVYRPFYIVRHY displayed an amyloid nucleation score of 5.101 ± 0.044.
The figure for IPAMETSTLAGYGPYSHNFG is -0.629 ± 0.26; for IPCVMG it is 0.004 ± 0.65; for IPFLLTHDEHAAGCPAMKSY it is 0.223 ± 0.33.
Turning to IPIIGITNEVPMSVRFPSIF, the amyloid nucleation score was -1.07 ± 0.55.
Under IPMPSCVQYYSVDYRWASLL stands -1.27 ± 0.44.
The figure for IPMSRGVQF is 0.82 ± 0.14.
The figure for IPTFKDLGFISESIMYNG is -1.38 ± 0.42; for IPYLNFDLYWLPVI it is -0.792 ± 0.48.
Take IQCTCTPDYPVLSLSVMVNF: the amyloid nucleation score amounted to 8.361 ± 0.078.
Under IQLIRHCSSLNRTYQVSVSR stands 0.364 ± 0.3; under IQWFIWN, 6.806 ± 0.027; under IRCQSVRDIGLYFDLDWVEK, 2.28 ± 0.085.
Under IRCRVRK stands 0.484 ± 0.4; under IRCSVVDLCESSADSTSVRP, “inactive”; under IRECLVRSATSFLLDHKRRC, -0.383 ± 1.
Under IRFTKYNDGCILIMPRDVQV stands -0.995 ± 0.55.
Take IRKIMVF: the amyloid nucleation score result is “inactive”.
Under IRNTLPAAIDVSATVTFVIL stands 3.17 ± 0.12; under IRPSLGRR, 1.79 ± 0.26; under IRSSWIANVLSANSRGRNNQ, 0.382 ± 0.33.
The substance IRVSLFYPSG yielded an amyloid nucleation score of 3.89 ± 0.051.
Under IRWAQTFILLFVCSSARPTQ stands 0.712 ± 0.36.
The figure for IRYTFSKLRSDCFMRCARSW is 0.898 ± 0.23; for ISFNQHTLSYKNVIFNCAFE it is 4.16 ± 0.044.
Under ISFYVCVIML stands 7.433 ± 0.065.
ISKLSARSLSRVVNLYKGVA gave an amyloid nucleation score of 0.85 ± 0.17.
The figure for ISKLTTRLLIYERNFPNWGH is 3.19 ± 0.17; for ISLAINLCALIDATRDWSPC it is 6.12 ± 0.05.
Under ISQAWVS stands -0.329 ± 0.25; under ISRKVAGSRDCINVRSTIGL, -1.14 ± 0.44.
The figure for ISSHVSCKSAFEAS is 0.395 ± 0.64; for ISSICFRNRDNFFLRAFGIG it is “inactive”.
Substance ISTIWFRLQTGARKTRLLFD displayed an amyloid nucleation score of -0.735 ± 0.79.
Under ISTTFV stands 0.192 ± 0.79; under ISWAVKMHDIPV, 0.97 ± 0.58; under ISYTVDQRRFTSLVRCLYDH, 0.322 ± 0.57.
ITEYSYWSGIPSSMVSPIKH showed an amyloid nucleation score of -0.459 ± 0.28.
The figure for ITIQKIVEYISLNPEDT is 5.878 ± 0.055; for ITISII it is 0.044 ± 1.1.
The figure for ITLASDFACLFGVIDYSWIV is 0.143 ± 0.49; for ITLGLQLCGFNCMTGLVRWS it is -0.079 ± 0.76.
Under ITTSSSWCATILSPQFFKDV stands -0.569 ± 0.44.
For the substance ITWNIVGGHFS, the amyloid nucleation score is -0.412 ± 1.1.
The entry for IVDRAFDRAFRCGTGFGTDI is “inactive”.
The figure for IVILTC is 0.464 ± 0.26.
Under IVLCWLEGG stands 0.516 ± 0.31.
On to IVLFVKVDLLIDLISPL, for which the amyloid nucleation score is 0.049 ± 0.56.
Turning to IVLLAVI, the amyloid nucleation score stood at 0.539 ± 0.81.
The figure for IVLLINRYMILMGEPNHA is 0.17 ± 0.35; for IVLLPWSCEM it is 1.26 ± 0.19; for IVNCCSYLYTRIHNVGPAGN it is 6.383 ± 0.063.
Substance IVNSKFKHAGVHPFDSL returned an amyloid nucleation score of -0.125 ± 0.79.
The figure for IVTTKWGNSHVSSVRIKARL is 5.42 ± 0.084; for IWILELFKY it is 4.07 ± 0.12; for IWMRVVC it is 0.337 ± 0.8.
The figure for IWQMLVMMKAWKMCPTLVRY is 1.09 ± 0.41.
The figure for IWQNVDCCPSWRLCVANHFM is 6.778 ± 0.054.
The substance IWRFRGRRNRAWKF came in with an amyloid nucleation score of -0.333 ± 0.62.
The figure for IWSCRGQLGSSFTPSGNCTG is 1.05 ± 0.37; for IYAQAFFVYHTLFWGGGDQW it is 0.495 ± 0.16.
The figure for IYFGMDASKIGLLYVVGYSG is 0.067 ± 0.63; for IYFYCGRCVSVFVHSFGMGL it is 4.21 ± 0.05; for IYFYKSGESFRAYPFAPGQW it is -1.37 ± 0.75.
The figure for IYGLCERTFEA is 0.977 ± 0.14; for IYIMVTVF it is 0.086 ± 0.33; for IYINYHREA it is 3.54 ± 0.052.
For IYKGTASIISCRWGWSVRHW, the amyloid nucleation score was -0.573 ± 0.79.
The substance IYRSVTRKSERMCTVVGQVV showed an amyloid nucleation score of -0.279 ± 0.48.
The figure for IYRTYYGINACLINLCMFDN is 7.55 ± 0.078; for IYRWPFVHPYMPLTRVAPDS it is “inactive”; for IYSISVLHCKGDLVYS it is “inactive”.
As to IYTNSISACDDVVGKNRVFA, the amyloid nucleation score is -1.3 ± 1.1.
The substance IYWMIIFWGFE showed an amyloid nucleation score of -0.089 ± 1.1.
The figure for IYYACL is 6.401 ± 0.054.
Turning to IYYGGYVNRLNREAFRGCKL, the amyloid nucleation score is -1.49 ± 0.49.
Regarding KAAVMRHMSCCCYYHP, the amyloid nucleation score worked out at 0.845 ± 0.66.
The entry for KAIGCAIKTFRYIYWIIWLL is “inactive”.
Under KALQNSDGVGTRNLQTRHGY stands 1.75 ± 0.29; under KARWLIFDDVFCCCKFGGWW, 9.018 ± 0.053.
